Measurements: patent US20050250700A1 (BRACCO SUISSE, published 2005)
One block for each binder: values may come before it. Bridge positions count the residues as written; N and C are the ends. Side chains are listed from the residue outwards. Ends that are not written are not given here. I, II: the chains in the order shown. * marks the point of attachment. Biotin = O=C1N[C@H]2[C@H](CS[C@H]2CCCCC(=O)*)N1; AEEA = NCCOCCOCC(=O)O

How the values were obtained:
[1] = target: T1, KDR (VEGFR-2), full-length receptor on cells (human, UniProt P35968 20-1356); assay: cell-based or functional assay
T1 sequence (P35968 20-1356): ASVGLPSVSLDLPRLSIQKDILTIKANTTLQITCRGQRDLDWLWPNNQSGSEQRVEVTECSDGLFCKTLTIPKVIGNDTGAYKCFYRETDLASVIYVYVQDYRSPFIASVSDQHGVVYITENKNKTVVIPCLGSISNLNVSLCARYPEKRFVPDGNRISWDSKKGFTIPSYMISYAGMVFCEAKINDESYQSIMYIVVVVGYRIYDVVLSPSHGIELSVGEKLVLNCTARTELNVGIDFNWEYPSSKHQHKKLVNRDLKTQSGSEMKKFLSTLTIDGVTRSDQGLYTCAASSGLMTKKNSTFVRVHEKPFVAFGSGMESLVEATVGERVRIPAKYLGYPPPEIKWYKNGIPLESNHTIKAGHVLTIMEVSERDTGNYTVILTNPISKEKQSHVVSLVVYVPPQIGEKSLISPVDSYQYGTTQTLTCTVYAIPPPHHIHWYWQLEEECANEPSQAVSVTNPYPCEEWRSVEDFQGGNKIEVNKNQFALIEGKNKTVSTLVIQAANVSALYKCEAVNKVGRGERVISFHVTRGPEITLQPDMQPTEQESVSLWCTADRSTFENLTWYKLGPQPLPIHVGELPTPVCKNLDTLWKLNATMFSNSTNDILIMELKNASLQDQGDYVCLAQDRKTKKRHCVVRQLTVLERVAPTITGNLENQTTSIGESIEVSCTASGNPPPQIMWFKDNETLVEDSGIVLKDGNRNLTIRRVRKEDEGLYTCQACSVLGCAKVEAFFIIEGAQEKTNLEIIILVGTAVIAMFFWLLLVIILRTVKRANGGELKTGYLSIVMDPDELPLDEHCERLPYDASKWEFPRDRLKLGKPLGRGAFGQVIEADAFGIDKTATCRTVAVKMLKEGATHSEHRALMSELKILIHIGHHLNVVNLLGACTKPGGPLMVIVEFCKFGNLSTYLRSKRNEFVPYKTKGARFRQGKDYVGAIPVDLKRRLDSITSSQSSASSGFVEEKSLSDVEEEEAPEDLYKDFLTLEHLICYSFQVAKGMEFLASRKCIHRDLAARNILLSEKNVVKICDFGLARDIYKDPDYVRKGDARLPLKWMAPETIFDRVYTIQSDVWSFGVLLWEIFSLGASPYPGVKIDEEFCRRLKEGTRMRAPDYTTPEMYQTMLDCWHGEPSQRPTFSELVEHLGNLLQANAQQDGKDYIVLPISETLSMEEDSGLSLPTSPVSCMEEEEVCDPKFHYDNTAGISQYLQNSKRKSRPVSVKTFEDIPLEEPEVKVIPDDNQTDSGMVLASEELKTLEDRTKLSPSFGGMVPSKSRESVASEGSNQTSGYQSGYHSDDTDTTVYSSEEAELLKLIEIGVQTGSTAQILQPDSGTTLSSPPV

[2] = target: T2, chimeric fusion of Ig Fc region with human KDR (human, UniProt P35968 20-764); assay: BIAcore steady state at the higher immobilization densities
T2 construct: bought, carrier-free; also called KDR-Fc; KDR Fc fusion; not shown: Ig Fc region
T2 sequence (P35968 20-764, change not shown): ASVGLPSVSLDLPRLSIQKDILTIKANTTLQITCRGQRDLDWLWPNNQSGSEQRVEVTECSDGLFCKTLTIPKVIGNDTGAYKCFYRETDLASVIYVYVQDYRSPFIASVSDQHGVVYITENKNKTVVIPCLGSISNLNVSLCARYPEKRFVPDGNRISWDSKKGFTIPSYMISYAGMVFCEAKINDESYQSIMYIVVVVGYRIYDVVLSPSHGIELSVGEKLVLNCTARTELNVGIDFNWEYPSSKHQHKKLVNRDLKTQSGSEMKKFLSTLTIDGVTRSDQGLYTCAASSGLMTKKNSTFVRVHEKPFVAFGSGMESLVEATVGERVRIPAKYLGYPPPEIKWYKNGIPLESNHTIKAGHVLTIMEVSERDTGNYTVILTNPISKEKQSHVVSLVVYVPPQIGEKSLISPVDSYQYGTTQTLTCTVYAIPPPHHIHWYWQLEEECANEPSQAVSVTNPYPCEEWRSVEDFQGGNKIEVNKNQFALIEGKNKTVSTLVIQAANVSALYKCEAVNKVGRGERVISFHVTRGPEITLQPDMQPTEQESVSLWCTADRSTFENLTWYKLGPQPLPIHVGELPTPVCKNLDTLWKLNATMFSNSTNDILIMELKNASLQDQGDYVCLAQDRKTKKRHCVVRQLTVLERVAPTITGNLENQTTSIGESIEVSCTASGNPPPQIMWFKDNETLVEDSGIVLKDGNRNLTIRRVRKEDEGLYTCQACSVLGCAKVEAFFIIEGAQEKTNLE
Method: (§1) All samples were injected in duplicate. […] Following a 10 minute dissociation, any remaining peptide was stripped from the KDR surface with a quickinject of 50 mM NaOH+1 M NaCl for 12 s at 75 μL/min. Sensorgrams were analyzed using BIAevaluation software 3.1 and a hyperbolic double rectangular regression equation in SigmaPlot 6.0.

[3] = target: T2, chimeric fusion of Ig Fc region with …; assay: BIAcore steady state, KDAV, KDR-Fc 3000 RU
Method: (§2) The heterodimer was tested for binding to KDR-Fc using Biacore, and an affinity constant was determined as follows.
as §1

[4] = target: T2, chimeric fusion of Ig Fc region with …; assay: BIAcore steady state, KD1, KDR-Fc 6000 RU
Method: as §2, §1

[5] = target: T2, chimeric fusion of Ig Fc region with …; assay: BIAcore steady state, KDAV, KDR-Fc 1600 RU
Method: as §2, §1

[6] = target: T2, chimeric fusion of Ig Fc region with …; assay: BIAcore steady state, KD1, KDR-Fc 3000 RU
Method: as §2, §1

[7] = target: T2, chimeric fusion of Ig Fc region with …; assay: BIAcore steady state, KDAV, KDR-Fc 6000 RU
Method: as §2, §1

[8] = target: T2, chimeric fusion of Ig Fc region with …; assay: BIAcore steady state, KD1, KDR-Fc 1600 RU
[9] = target: T1, KDR (VEGFR-2), full-length receptor on …; assay: saturation binding of peptide/neutravidin-HRP complex, KDR- minus mock-transfected 293H cells
Method: (§3) After incubation at room temperature, plates were transferred to 4° C. for another half-hour incubation. Subsequently, cells were washed 5 times with ice-cold M199 media and once with ice-cold PBS (in that order). After the final wash, 100 μl of ice cold TMB solution (KPL, cat. # 50-76-00) was added to each well and each plate was incubated for 30 minutes at 37° C. in an air incubator.
Therefore, absorbance on the Y-axis of FIG. 1 is differential absorbance (KDR minus mock) and not the absolute absorbance.

[10] = target: T1, KDR (VEGFR-2), full-length receptor on …; assay: 3.33 nM peptide mix/neutravidin-HRP complex on 293H cells
Method: Peptide stock solutions were stored at −20C, whereas the Neutravidin HRP stock solution was stored at −80C. […] Fresh peptide/neutravidin HRP complexes were prepared for each experiment.
as §3, with “4C” for “4° C.”, “five” for “5”, “μL” for “μl”, “Gaithersburg, Md.)” for “cat. # 50-76-00)”, “37C” for “37° C.”

[11] = target: T2, chimeric fusion of Ig Fc region with …; assay: SPR; form of KDR not stated there
[12] = target: T1, KDR (VEGFR-2), full-length receptor on …; assay: competitor 125I-VEGF (300 pM) on KDR-transfected 293H cells; peptide 30 µM
Method: (§4) Preparation of 30 μM and 0.3 μM peptide solution in 300 pM ¹²⁵I-labeled VEGF: For each 96 well plate, 10 mL of 300 pM ¹²⁵I-labeled VEGF in M199 medium was prepared at 4° C. Each peptide solution (3 mM, prepared as described above) was diluted 1:100 and 1:10000 in 300 μl of M199 media with 300 pM ¹²⁵I-labeled VEGF to prepare 30 μM and 0.3 μM peptide solutions containing 300 pM of ¹²⁵I-labeled VEGF. Once prepared, the solutions were kept on ice until ready to use. The dilution of peptides in M199 media containing 300 pM ¹²⁵I-labeled VEGF was done freshly for each experiment.
(§5) To calculate the specific binding to KDR, the binding of ¹²⁵I-labeled VEGF to mock-transfected cells was subtracted from KDR-transfected cells.

[13] = target: T1, KDR (VEGFR-2), full-length receptor on …; assay: competitor 125I-VEGF (300 pM) on KDR-transfected 293H cells; peptide 0.3 µM
Method: as §4, §5

B3: tetrameric neutravidin-HRP complex of SEQ ID NO:294 and SEQ ID NO:264, ratio 3:1 (other)
peptide 1: Ac-GDSRVCWEDSWGGEVCFRYDPGGGK([AEEA-AEEA-Biotin])-NH2
peptide 2: Ac-AGPKWCEEDWYYCMITGTGGGK([AEEA-AEEA-Biotin])-NH2
modifications: disulfide I:6-I:16, II:6-II:13 (inferred); also: tetrameric neutravidin-HRP complex, chain ratio 3:1
notes: nominal composition
binding result [10]: binds

B4: tetrameric neutravidin-HRP complex of SEQ ID NO:294 and SEQ ID NO:264, ratio 2:2 (other)
peptide 1: Ac-GDSRVCWEDSWGGEVCFRYDPGGGK([AEEA-AEEA-Biotin])-NH2
peptide 2: Ac-AGPKWCEEDWYYCMITGTGGGK([AEEA-AEEA-Biotin])-NH2
modifications: disulfide I:6-I:16, II:6-II:13 (inferred); also: tetrameric neutravidin-HRP complex, chain ratio 2:2
notes: nominal composition
binding result [10]: binds

B7: SEQ ID NO:337, monomeric free peptide (peptide)
peptide: VCWEDSWGGEVCFRYDPGGGK
modifications: disulfide 2-12 (inferred)
IC50, receptor activation assay [1]: 1 µM

B8: acetylated SEQ ID NO:294 without the modified C-terminus (SEQ ID NO:374) (peptide)
peptide: Ac-GDSRVCWEDSWGGEVCFRYDP
modifications: disulfide 6-16 (inferred)
% inhibition of 125I-labeled VEGF binding [12]: 96.3%
% inhibition of 125I-labeled VEGF binding [13]: 52.3%

Second part, the binder after the results:

IC50, VEGF-induced migration of HUVECs [1]: ~0.0125 µM
IC50, VEGF-induced migration of HUVECs, with 100 nM Adjunct A [1]: ~0.0025 µM
Kd [2]: ~0.0006 µM
Kd [3]: 0.000665 µM
Kd [4]: 0.017 µM
Kd [5]: 0.0015 µM
Kd [6]: 0.0255 µM
Kd [7]: 0.000662 µM
Kd [8]: 0.046 µM
B1: dimer 6 (D6) (peptide)
peptide 1: GDSRVCWEDSWGGEVCFRYDPGGGK
peptide 2: AGPTWCEDDWYYCWLFGTGGGK
modifications: disulfide I:6-I:16, II:6-II:13 (inferred); also: heterodimer joined by glutaric acid linkage

Kd [9]: 0.01 µM
B2: tetrameric complex of biotinylated SEQ ID NO:294 (JJ spacer) with neutravidin-HRP (other)
peptide: Ac-GDSRVCWEDSWGGEVCFRYDPGGGK([AEEA-AEEA-Biotin])-NH2
modifications: disulfide 6-16 (inferred); also: tetrameric complex with neutravidin-HRP
notes: peptides held on neutravidin-HRP (Pierce 31001)

binding result [10]: binds
B5: tetrameric neutravidin-HRP complex of SEQ ID NO:294 and SEQ ID NO:264, ratio 1:3 (other)
peptide 1: Ac-GDSRVCWEDSWGGEVCFRYDPGGGK([AEEA-AEEA-Biotin])-NH2
peptide 2: Ac-AGPKWCEEDWYYCMITGTGGGK([AEEA-AEEA-Biotin])-NH2
modifications: disulfide I:6-I:16, II:6-II:13 (inferred); also: tetrameric neutravidin-HRP complex, chain ratio 1:3
notes: nominal composition

Kd [11]: 0.011 µM
B6: dimer 28 (D28) (peptide)
peptide 1: AQEPEGYAYWEVITLYHEEDGDGGK
peptide 2: AQAFPRFGGDDYWIQQYLRYTDGGK
modifications: also: tail-to-tail heterodimer, linkage not given here
